Results published in publication doi:10.1101/2020.03.09.984104 (bioRxiv, 2020).

What follows are binders tested against E. coli Hsp70 (DnaK) (E. coli, UniProt P0A6Y8 1-638) (assay: SPR).
Sequence of E. coli Hsp70 (DnaK) (P0A6Y8 whole entry): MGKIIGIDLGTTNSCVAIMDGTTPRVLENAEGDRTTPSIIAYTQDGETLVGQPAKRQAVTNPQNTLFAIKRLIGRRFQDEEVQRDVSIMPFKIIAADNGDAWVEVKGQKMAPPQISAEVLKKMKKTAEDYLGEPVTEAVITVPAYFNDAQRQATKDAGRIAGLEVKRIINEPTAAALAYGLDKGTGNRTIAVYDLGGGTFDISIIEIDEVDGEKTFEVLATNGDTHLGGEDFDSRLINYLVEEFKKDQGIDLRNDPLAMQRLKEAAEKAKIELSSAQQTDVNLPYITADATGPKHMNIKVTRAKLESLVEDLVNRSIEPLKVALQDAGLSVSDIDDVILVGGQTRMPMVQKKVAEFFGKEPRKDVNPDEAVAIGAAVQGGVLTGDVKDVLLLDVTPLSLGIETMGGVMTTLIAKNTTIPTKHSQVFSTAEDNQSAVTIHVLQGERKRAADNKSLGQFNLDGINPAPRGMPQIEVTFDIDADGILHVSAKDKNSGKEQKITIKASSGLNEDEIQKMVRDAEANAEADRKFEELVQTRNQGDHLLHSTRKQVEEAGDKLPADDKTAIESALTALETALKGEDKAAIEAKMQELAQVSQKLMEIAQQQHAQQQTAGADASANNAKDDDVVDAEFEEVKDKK

Row | Binder | binding result
1 | NRNNTG | binds
2 | NRLLTG | binds
3 | ALLLMYRR | binds
4 | GFRVVLMYRF | binds
5 | ANNNMYRR | binds
6 | GFRNNNMYRF | binds
